Experimental data published in US20260242478A1 (published 2026).
Where no end group is shown, it is not given here.

B1: Phage-1901 (peptide)
peptide: TDMWCTPMWMCMGF
modifications: cysteine pairing not given here; also: displayed as fusion to phage pIII
notes: Peptide-180 library clone, tested as clonal phage supernatant; not shown: pIII of the bacteriophage to which the peptide is fused
B2: Phage-1902 (peptide)
peptide: LIPWCIPAWMCTSD
modifications: cysteine pairing not given here; also: displayed as fusion to phage pIII
notes: as for B1
B3: Phage-1894 (peptide)
peptide: FEKWCTPAWMCAGW
modifications: cysteine pairing not given here; also: fused to phage pIII, sequence and linker not given here
notes: as for B1
B4: Phage-1903 (peptide)
peptide: IDMRCTPNWMCIGF
modifications: cysteine pairing not given here; also: displayed as fusion to phage pIII
notes: as for B1
B5: Phage-1897 (peptide)
peptide: MEKLCIPAWMCDGM
modifications: cysteine pairing not given here; also: fused to phage pIII, sequence and linker not given here
notes: as for B1
B6: Phage-1891 (peptide)
peptide: LEKWCIPAWMCEWS
modifications: cysteine pairing not given here; also: fused to phage pIII, sequence and linker not given here
notes: as for B1
B7: Phage-1896 (peptide)
peptide: VLKWCTPAWMCEIF
modifications: cysteine pairing not given here; also: fused to phage pIII, sequence and linker not given here
notes: as for B1
B8: Phage-1892 (peptide)
peptide: VPKLCTPVWMCTGF
modifications: cysteine pairing not given here; also: fused to phage pIII, sequence and linker not given here
notes: as for B1
B9: Phage-1893 (peptide)
peptide: FDKWCIPPWMCQAL
modifications: cysteine pairing not given here; also: fused to phage pIII, sequence and linker not given here
notes: as for B1
B10: Phage-1898 (peptide)
peptide: AEKWCFPAWMCERP
modifications: cysteine pairing not given here; also: fused to phage pIII, sequence and linker not given here
notes: as for B1
B11: Phage-1900 (peptide)
peptide: VSRLCIPTWMCDYS
modifications: cysteine pairing not given here; also: displayed as fusion to phage pIII
notes: as for B1
B12: Phage-1899 (peptide)
peptide: SVKMCTPAWMCSGF
modifications: cysteine pairing not given here; also: fused to phage pIII, sequence and linker not given here
notes: as for B1
B13: Phage-1895 (peptide)
peptide: WEKMCVPSWMCHFS
modifications: cysteine pairing not given here; also: fused to phage pIII, sequence and linker not given here
notes: as for B1
B14: Phage-1875 (peptide)
peptide: FVPWCIPAWMCAEN
modifications: cysteine pairing not given here; also: displayed on phage as pIII fusion, pIII sequence and linker not given here
B15: Phage-1882 (peptide)
peptide: VTPWCTPSWMCFGF
notes: tested as crude clonal phage supernatant
B16: Phage-1879 (peptide)
peptide: SLHWCIPAWMCDFV
notes: as for B15
B17: Phage-1877 (peptide)
peptide: IERWCIPDWMCHVW
notes: as for B15
B18: Phage-1876 (peptide)
peptide: VVKLCIPEWMCAEW
modifications: cysteine pairing not given here; also: displayed on phage as pIII fusion, pIII sequence and linker not given here
notes: as for B15
B19: Phage-1887 (peptide)
peptide: LDHWCFPMWMCTGF
notes: as for B15
B20: Phage-1881 (peptide)
peptide: LEKWCTPAWMCEML
notes: as for B15
B21: Phage-1888 (peptide)
peptide: WSNWCTPEWMCVGF
notes: as for B15
B22: Phage-1878 (peptide)
peptide: VEILCKPKWMCEFW
notes: as for B15
B23: Phage-1885 (peptide)
peptide: FAKWCIPEWMCSVS
notes: as for B15
B24: Phage-1884 (peptide)
peptide: MVMRCQPEWMCTGI
notes: as for B15
B25: Phage-1890 (peptide)
peptide: AIKWCIPSWMCVED
notes: tested as crude clonal phage supernatant; also called AIKWCIPSWMCVED
B26: Phage-1883 (peptide)
peptide: VNKLCTPEWMCVGM
notes: as for B15
B27: Phage-1886 (peptide)
peptide: WEKWCIPAWMCVAD
notes: as for B15
B28: Phage-1889 (peptide)
peptide: DVMWCKPSWMCDWL
notes: as for B15
B29: Phage-1880 (peptide)
peptide: VLMLCKPAWMCMGF
notes: as for B15

Biological target: T1, Anti-PSMA Fab (SEQ ID NOs: 19, 20)
T1 construct: Biotinylated and captured on neutravidin coated plates in the phage ELISA; also called 006 PSMA Fab
Assay: phage binding ELISA on captured PSMA Fab; competitor PSMA antigen pre-incubated in the well
Experimental: (§1) Clonal phage were harvested as crude supernatants and screened via standard ELISAs. […] Prior to the addition of clonal phage. wells were incubated with blocking buffer and PSMA antigen or blocking buffer alone. Without washing or aspirating, clonal phage supernatants were then added to the wells and incubated for a short time. Wells were then washed followed by detection of bound phage using a horse radish conjugated anti-M13 antibody.

Binder | Anti-PSMA Fab signal in the presence of PSMA
B1 | 0.0829
B2 | 0.0863
B3 | 0.0792
B4 | 0.081
B5 | 0.279
B6 | 0.113
B7 | 0.141
B8 | 0.0783
B9 | 0.112
B10 | 0.0803
B11 | 0.0757
B12 | 0.0752
B13 | 0.0735

Biological target: T2, Anti-PSMA Fab (SEQ ID NOs: 19, 20)
T2 construct: Biotinylated PSMA Fab captured on neutravidin coated plates in the phage ELISA; also called 006 PSMA Fab
Assay: phage binding ELISA on captured anti-PSMA Fab; competitor: PSMA antigen pre-incubated in the wells
Experimental: as §1

Binder | Anti-PSMA Fab signal in the presence of PSMA
EFIWCRPAWMCMDV [Phage-1870] | 0.0681
MEKLCKPAWMCSML [Phage-1868] | 0.0627
SIKMCIPQWMCVMQ [Phage-1869] | 0.179
HVKWCIPAWMCEAS [Phage-1871] | 0.0972
SPKWCTPEWMCSHL [Phage-1874] | 0.127
B14 | 0.111
VMKWCIPEWMCQHT [Phage-1872] | 0.199
VEHWCIPAWMCEWM [Phage-1873] | 0.12

Biological target: T1, Anti-PSMA Fab (SEQ ID NOs: 19, 20)
Assay: phage binding ELISA; biotinylated PSMA Fab on neutravidin plate, bound phage detected with anti-M13 HRP
Experimental: as §1

Binder | Anti-PSMA Fab (SEQ ID NOs: 19, 20) signal
B1 | 2.03
B2 | 2.03
B3 | 2.04
B4 | 2.03
B5 | 2.03
B6 | 2.04
B7 | 2.03
B8 | 2.04
B9 | 2.04
B10 | 2.03
B11 | 2.03
B12 | 2.03
B13 | 2.03

Biological target: T2, Anti-PSMA Fab (SEQ ID NOs: 19, 20)
Assay: phage binding ELISA; biotinylated anti-PSMA Fab on neutravidin plate, bound phage detected with anti-M13-HRP
Experimental: as §1

Binder | Anti-PSMA Fab (SEQ ID NOs: 19, 20) signal
EFIWCRPAWMCMDV [Phage-1870] | 2.11
MEKLCKPAWMCSML [Phage-1868] | 2.11
SIKMCIPQWMCVMQ [Phage-1869] | 2.11
HVKWCIPAWMCEAS [Phage-1871] | 2.1
SPKWCTPEWMCSHL [Phage-1874] | 2.09
B14 | 2.08
VMKWCIPEWMCQHT [Phage-1872] | 2.09
VEHWCIPAWMCEWM [Phage-1873] | 2.09

Biological target: T3, Anti-PSMA Fab (SEQ ID NOs: 19, 20)
T3 construct: In the panning ELISA the Fab was biotinylated and captured on neutravidin coated plates; also called 006 PSMA Fab
Assay: phage binding ELISA; biotinylated PSMA Fab on neutravidin plate, clonal phage supernatant, anti-M13 HRP detection;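 note: wells were preincubated with blocking buffer either containing PSMA antigen or without it before crude phage supernatant was added, briefly incubated, then washed prior to detection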
Experimental: as §1

Binder | Anti-PSMA Fab (SEQ ID NOs: 19, 20) signal
B15 | 2.06
B16 | 2.07
B17 | 2.08
B18 | 2.08
B19 | 2.05
B20 | 2.06
B21 | 2.05
B22 | 2.07
B23 | 2.06
B24 | 2.06
B25 | 2.04
B26 | 2.06
B27 | 2.05
B28 | 2.04
B29 | 2.07

Biological target: T3, Anti-PSMA Fab (SEQ ID NOs: 19, 20)
Assay: phage binding ELISA; biotinylated PSMA Fab on neutravidin plate pre-incubated with PSMA antigen (competitor), anti-M13 HRP detection;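 note: competition ELISA where clonal phage supernatants were added to wells preincubated with PSMA antigen or with blocking buffer only as control, bound phage read via HRP-coupled anti-M13 antibody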
Experimental: as §1

Binder | Anti-PSMA Fab signal in the presence of PSMA
B15 | 0.072
B16 | 0.185
B17 | 0.126
B18 | 0.115
B19 | 0.233
B20 | 0.0814
B21 | 0.0814
B22 | 0.109
B23 | 0.119
B24 | 0.122
B25 | 0.0876
B26 | 0.0609
B27 | 0.134
B28 | 0.127
B29 | 0.375
